We go through two molecules from patent US20200140562A1 (Innovent, published 2020).

Experiment [1] deals with T1, human OX40 on cells (CHO-hOX40, 293HEK-hOX40, Jurkat-hOX40, activated primary CD4+ T cells) (human, UniProt P43489 29-277).
T1 construct: whole, on cells; The cell type is told in each assay; also called CHO-OX40
T1 sequence (looked up): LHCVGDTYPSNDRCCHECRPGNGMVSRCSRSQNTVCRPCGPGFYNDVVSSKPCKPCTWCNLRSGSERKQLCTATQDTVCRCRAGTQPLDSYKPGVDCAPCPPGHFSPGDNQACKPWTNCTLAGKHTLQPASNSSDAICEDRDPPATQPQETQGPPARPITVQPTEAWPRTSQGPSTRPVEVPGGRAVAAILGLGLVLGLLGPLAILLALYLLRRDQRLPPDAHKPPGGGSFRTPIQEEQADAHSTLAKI
As to the kind of experiment: flow cytometry, CHO-hOX40, 0.048828125 nM. In general terms: Flow cytometry measures light scatter and fluorescence of single cells or particles in a stream.

The target in experiment [2] is T1, human OX40 on cells (CHO-hOX40, …). Briefly: flow cytometry, CHO-hOX40, 100 nM.
The target is the same in experiment [3]. As to the kind of experiment: flow cytometry, CHO-hOX40, 6.25 nM.
Experiment [4] shares this target. As to the kind of experiment: flow cytometry, CHO-hOX40, 12.5 nM.
For experiment [5] the target is unchanged. As to the kind of experiment: flow cytometry, CHO-hOX40, 0.024414063 nM.
For experiment [6] the target is unchanged. Briefly: flow cytometry, CHO-hOX40, 0.78125 nM.
The target is the same in experiment [7]. As to the kind of experiment: flow cytometry, CHO-hOX40, 200 nM.
Experiment [8] has the same target. As to the kind of experiment: flow cytometry, CHO-hOX40, 0.09765625 nM.
Experiment [9] has the same target. Briefly: flow cytometry, CHO-hOX40, 50 nM.
Experiment [10] shares this target. As to the kind of experiment: flow cytometry, CHO-hOX40, 1.5625 nM.
For experiment [11] the target is unchanged. Briefly: flow cytometry, CHO-hOX40, 3.125 nM.
The target is the same in experiment [12]. As to the kind of experiment: flow cytometry, CHO-hOX40, 25 nM.
Experiment [13] shares this target. Briefly: flow cytometry, CHO-hOX40, 0.1953125 nM.
For experiment [14] the target is unchanged. Briefly: flow cytometry, CHO-hOX40.
For experiment [15] the target is unchanged. Briefly: flow cytometry, CHO-hOX40, 0.390625 nM.
Experiment [16] has the same target. As to the kind of experiment: flow cytometry, CHO-hOX40, 100 nM. This is another data set of the same source.
Experiment [17] has the same target. As to the kind of experiment: cell-based or functional assay.
For experiment [18] the target is unchanged. As to the kind of experiment: flow cytometry, MFI on CHO-hOX40 over wild-type CHO.
Experiment [19] addresses T2, mouse OX40Fc (Acro Biosystems) (mouse, UniProt P47741 20-211, limits assumed).
T2 construct: Bought; not shown: Fc
T2 sequence (looked up): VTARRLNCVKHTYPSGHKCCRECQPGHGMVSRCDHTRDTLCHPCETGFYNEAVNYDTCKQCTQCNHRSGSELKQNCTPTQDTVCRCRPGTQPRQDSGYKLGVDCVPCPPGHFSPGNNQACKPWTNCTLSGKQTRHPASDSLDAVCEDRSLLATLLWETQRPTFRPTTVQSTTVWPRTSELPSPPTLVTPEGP
As to the kind of experiment: BLI, IgG1 on tip, mouse OX40-Fc 100 nM, avid.

Experiment [20] has as its target T3, human OX40_Fc (R&D Systems) (human, UniProt P43489 29-216).
T3 construct: Bought
Briefly: BLI, IgG1 on tip, hOX40-Fc 50 nM, avid. In general terms: Biolayer interferometry detects binding as a change in optical thickness at a sensor tip.

Experiment [21] concerns the target T4, cyno OX40_Fc (Acro Biosystems) (cyno).
T4 construct: Bought
Briefly: BLI, IgG1 on tip, cyno OX40-Fc 100 nM, avid.

B1: Hu106-222 (IgG2) (antibody, V domains shown)
VH: QVQLVQSGSELKKPGASVKVSCKASGYTFTDYSMHWVRQAPGQGLKWMGWINTETGEPTYADDFKGRFVFSLDTSVSTAYLQISSLKAEDTAVYYCANPYYDYVSYYAMDYWGQGTLVTVSS
VL: DIQMTQSPSSLSASVGDRVTITCKASQDVSTAVAWYQQKPGKAPKLLIYSASYLYTGVPSRFSGSGSGTDFTFTISSLQPEDIATYYCQQHYSTPRTFGQGTKLEIK
For B1, the MFI in experiment [1] is 15400 MFI; in experiment [2], 2.39e+06 MFI; in [3], 1.06e+06 MFI; in experiment [4], 1.52e+06 MFI; in experiment [5], 14600 MFI; in experiment [6], 188000 MFI. Besides, the MFI was found to be 2.55e+06 MFI in [7]; 28200 MFI in experiment [8]; 1.59e+06 MFI in experiment [9]; 334000 MFI in [10]; 660000 MFI in experiment [11]; 2.16e+06 MFI in [12]. Besides, the MFI in [13] was found to be 49500 MFI; in experiment [15], 101000 MFI. In addition, in experiment [14], the EC50 (as a rule, the concentration that produces a half-maximal response) was 8.37 nM.

B2: ADI-23515, IgG1 format (antibody)
heavy: not shown
light: EIVLTQSPGTLSLSPGERATLSCRASQSVSSSYLAWYQQKPGQAPRLLIYGASSRATGIPDRFSGSGSGTDFTLTISRLEPEDFAVYYCQQSERSPFTFGGGTKVEIKRTVAAPSVFIFPPSDEQLKSGTASVVCLLNNFYPREAKVQWKVDNALQSGNSQESVTEQDSKDSTYSLSSTLTLSKADYEKHKVYACEVTHQGLSSPVTKSFNRGEC
notes: Made in yeast or CHO cells; also called ADI-23515-g1
On to B2, for which, in experiment [16], the “CHO-OX40 binding intensity (MFI)” value was 181000 MFI. The “EC50, NFkB-luciferase reporter in Jurkat-hOX40 mixed with Raji cells” value in [17] was found to be 0.174 nM. The same molecule displayed a Fold difference in experiment [18] of 1550 fold. The Kd (commonly a measure of binding affinity in units of concentration) was found to be 8.98 nM in experiment [19], 0.273 nM in experiment [20] and 1.09 nM in experiment [21].
